Source: the supplement of paper PMC7125110
± gives the standard error. Fewer inactive variants are shown than the library holds.

B1: glmS ribozyme (parent)
chain: AUAAAAGCGCCAGAACUACAGAAAUGUAGUUGACGAGGAGGAGGUUUAUCGAAUUUUCGGCGGAUGCCUCCAAA

Variants of: B1
Assay: self-cleavage kobs at 2500 uM GlcN6P; higher = faster cleavage; RNA array
Conditions: with glucosamine-6-phosphate
Procedure, shortened: (§1)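 Glucosamine-6-phosphate, from 40 μM to 10 mM in HEPES/KCl/Mg(OAc)2 buffer, was flowed over sequenced MiSeq chips carrying barcoded ribozyme variants transcribed in situ by E. coli RNA polymerase. A hybridised Cy3 probe tracked the variants at 37 °C as tiles were imaged over ~14 h. kobs, kcat and KM were obtained by fitting normalised per-tile medians to exponential decays and then applying weighted Michaelis–Menten fits across concentrations.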

First: AUAAAAGCGCCCGAACUACAGAAAUGUAGUUGACGAUUAGGAGGUUUAUCGAAUUUUCGGCGGAUGCCUCCAAA [A12C G37U G38U]
Second: AUAAAAGCGCCGGAACUACAGAAAUGUAGUUGACGAGGAGGAGGUUUAUCGAAUUUUCGGUGGAUGUGUCCAAA [A12G C61U C67U C68G]
The “self-cleavage kobs at 2500 uM GlcN6P” value of the first is lower: < 1e-05 s⁻¹ for the first, 5.12e-05 ± 2.3e-05 s⁻¹ for the second.

AUAAAAGCGCCUGAACUACAGAAAUGUAGAUGACGAAGAGGAGGUUUAUCGAAUUUUCUGCGGAUGCCUCCAAA [A12U U30A G37A G59U] and AUAAAAGCGCCUGAACUACAGAAAUGUAGUUGACGAGGAGGAGGUUUUUCGAAUUUUUGGCGGAUGCCUCCAAA [A12U A48U C58U] cannot be ordered by “self-cleavage kobs at 2500 uM GlcN6P” value: < 1e-05 s⁻¹ for the first, < 1e-05 s⁻¹ for the second.

AUAAAAGCGCCGGAACUACAGAAAUGUAGUUUAUGAGGAGGAGGUUUAUCGAUUUUUCGGCGGAUGCCUCCAAA [A12G G32U C34U A53U] and AUAAAAGCGCCGGAACUACAGAAAUGUAGUUGACGAGGAGGACGCUUAUCGAAUUUUCGGGGGAUGCCUCCAAA [A12G G43C U45C C61G] cannot be ordered by “self-cleavage kobs at 2500 uM GlcN6P” value: < 1e-05 s⁻¹ for the first, < 1e-05 s⁻¹ for the second.

Compared with AUAAAAGCGCCUGAACUACAGAAAUGUAGUUGACGAGGAGGAGGUUUAUCGAAUUUUCGGCCGAUGCCUGCAAA [A12U G62C C70G], AUAAAAGCGCCGGAACUACAGAAAUGUAGUUGACGAGGAGGAGGUUUAUCGAAAUUUCGGCGGAUGCGUCCAAA [A12G U54A C68G] is higher in “self-cleavage kobs at 2500 uM GlcN6P” value: < 1e-05 s⁻¹ for the first, 5.86e-05 ± 1e-05 s⁻¹ for the second.

AUAAAAGCGCCUGAACUACAGAAAUGUAGUUGACGAGGAGGAGGUUUUUCGAAUUUUCGGCGGAUGCCUGCAAA [A12U A48U C70G] and AUAAAAGCGCCGGCCCUACAGAAAUGUAGUUGACGAGGAGGAGGUUUAUCGAAUUUUCGGCGGAUGCCUCCAAA [A12G A14C A15C] are within error of each other in “self-cleavage kobs at 2500 uM GlcN6P” value: 0.000115 ± 5e-05 s⁻¹ for the first, 6.38e-05 ± 2.6e-05 s⁻¹ for the second.

First: AUAAAAGCGCCCGAACUACAGAAAUGUAGUUGACGAGGAGGAGGUUUAUCGAAUUAUGGGCGGAUGCCUCCAAA [A12C U56A C58G]
Second: AUAAAAGCGCCGGAAUUACAGAAAUGUAAUUGACGAGGAAGUGGGUUAUCGAAUUUUCGGCGGAUGCCUCCAAA [A12G C16U G29A G40A A42U U45G]
The “self-cleavage kobs at 2500 uM GlcN6P” value of the first is 5.1-fold higher: 0.00043 ± 8.1e-05 s⁻¹ for the first, 8.49e-05 ± 2.3e-05 s⁻¹ for the second.

AUAAAAGCGCCUGAACUACAGAAAUGUAGUUGACGAGUAGGAGGUUUAACGAAUUUUCGGCGGAUGCCUCCAAA [A12U G38U U49A] and AUAAAAGCGCCGGAACUACAGAAAUGUAGUUGACGAGGAGGAUGUUUCUCGAAUUUUCGGCGGAUGCCGCCAAA [A12G G43U A48C U69G] cannot be ordered by “self-cleavage kobs at 2500 uM GlcN6P” value: < 1e-05 s⁻¹ for the first, < 1e-05 s⁻¹ for the second.

AUAAAAGCGCCUGAACUACAGAAAUGUAGUUGGCGAGUAGGAGUUUUAUCGAAUUUUCAGCGGAUGCCUCCAAA [A12U A33G G38U G44U G59A] and AUAAAAGCGCCUGAUCUACAGAAAUGUAGUUGACGAGGAGGAGGUUUAUAAAAUUUUCCGCGGAUGCCUCCAAA [A12U A15U C50A G51A G59C] cannot be ordered by “self-cleavage kobs at 2500 uM GlcN6P” value: < 1e-05 s⁻¹ for the first, < 1e-05 s⁻¹ for the second.

AUAAAAGCGCCUGAACUACAGAAAUGUAGUUGACGAAGAGGAGGUUUAUCGAAUUUUCGGCGGAUGCCUGCAAA [A12U G37A C70G] and AUAAAAGCGCCGGAACUACAGAAAUGUAGUUGACGAGGAGGAGGUUUAUCGAAUUUUCGGCAGAUGCCAACAAA [A12G G62A U69A C70A] are within error of each other in “self-cleavage kobs at 2500 uM GlcN6P” value: 0.00013 ± 3.4e-05 s⁻¹ for the first, 0.000135 ± 5.1e-05 s⁻¹ for the second.

AUAAAAGCGCCUGAAUUACAGAAAUGUAGUUGACGAGGAGGACGUUUAUCGAAUUUUCGGCCGAUGCCUUCAAA [A12U C16U G43C G62C C70U] and AUAAAAGCGCCGGAACUACAGAAAUGUAGUUGAUGAGGAGGAGGUUUAUCGUAUUUUCGGCGGAUGCCUCCAAA [A12G C34U A52U] cannot be ordered by “self-cleavage kobs at 2500 uM GlcN6P” value: < 1e-05 s⁻¹ for the first, < 1e-05 s⁻¹ for the second.

Compared with AUAAAAGCGCCUGAACUACAGAAAUGUAGUUGACGAGGAGGAGGUUGAUCGAAUUUUCGGCGGAGGCCUCCAAA [A12U U47G U65G], AUAAAAGCGCCGGAUCUACAGAAAUGUAGUUGACAAGGAGGAGGUUUAUCGAAUUUUCGGCGGAUGCCUCCAAA [A12G A15U G35A] is lower in “self-cleavage kobs at 2500 uM GlcN6P” value: 0.00179 ± 0.0004 s⁻¹ for the first, < 1e-05 s⁻¹ for the second.

AUAAAAGCGCCGGAUCUACAGAAAUGUAGUUGACGAUGAGGGGGUUUAUCGAAUAUUCGGCGGAUGCCUCCAAA [A12G A15U G37U A42G U55A] and AUAAAAGCGCCGGAACUACAGAAAUGUAGUUGACGCGGAGGAGGUUUAUCGAAUUUUCGGCGGAUGCCUUCAAA [A12G A36C C70U] cannot be ordered by “self-cleavage kobs at 2500 uM GlcN6P” value: < 1e-05 s⁻¹ for the first, < 1e-05 s⁻¹ for the second.

Going from AUAAAAGCGCCGGAACUACAGAAAUGUAGUUGGCGAGGAGCAGGUUUAUCGAAUUUUCGGCGGAUACCUCCAAA [A12G A33G G41C G66A] to AUAAAAGCGCCCGAACUACAGAAAUGUAGUUGACGAGGAGGAGGUUUAUCGAAUAUUAGGCGGAUGCCUCCAAA [A12C U55A C58A], the “self-cleavage kobs at 2500 uM GlcN6P” value rises from < 1e-05 s⁻¹ to 8.77e-05 ± 1.8e-05 s⁻¹.

AUAAAAGCGCCUGAACUACAGAAAUGUAGUUGAAGAGGAGGAGGUUUUUCGAAUUUUCGGCGGAUGCCUCCAAA [A12U C34A A48U] and AUAAAAGCGCCCGAACUACAGAAAUGUAGUUGACGAGCAGGAGGUUUAUCGAAUUUUCGGCGGAUGCCUCUAAA [A12C G38C C71U] cannot be ordered by “self-cleavage kobs at 2500 uM GlcN6P” value: < 1e-05 s⁻¹ for the first, < 1e-05 s⁻¹ for the second.

AUAAAAGCGCCCGAACUACAGAAAUGUAGUUGACGAGGAGGAGGUAUAUCGAAUUUUCGGCGGAUGCCUCAAAA [A12C U46A C71A] and AUAAAAGCGCCUGAACUACAGAAAUGUAUAAGACGAGGAGGAGGUUUAUCGAAUUUUCGGCGGAUGCCUCCAAA [A12U G29U U30A U31A] are within error of each other in “self-cleavage kobs at 2500 uM GlcN6P” value: 6.86e-05 ± 2.4e-05 s⁻¹ for the first, 0.000126 ± 4.8e-05 s⁻¹ for the second.

First: AUAAAAGCGCCUGAAGUACAGAAAUGUAGCUGACGAGGAGGAGGUUUAUCGAAUUUUCGGCGGAUGCCUCCAAA [A12U C16G U30C]
Second: AUAAAAGCGCCGGAACUACAGAAAUGUAGUUGACGAGGAGGAGGUUUAUCGAACUUUCGGCGGAGGCCUCCAAA [A12G U54C U65G]
The “self-cleavage kobs at 2500 uM GlcN6P” value of the first is 27-fold higher: 0.000813 ± 0.00031 s⁻¹ for the first, 3.01e-05 ± 1.2e-05 s⁻¹ for the second.

AUAAAAGCGCCCGAACUACAGAAAUGUAGUUGACGAGGAGGAGCUUUAUCGAAUUUUCGGCGGACGCCUCCAAA [A12C G44C U65C] was tested, and the “self-cleavage kobs at 2500 uM GlcN6P” value was < 1e-05 s⁻¹.

Variants of: B1
Assay: self-cleavage kobs at 10000 uM GlcN6P; higher = faster cleavage; RNA array
Conditions: with glucosamine-6-phosphate
Procedure, shortened: as §1

Compared with AUAAAAGCGCCGGAACUACAGAAAUGUAGUUGACGAGGAGGACGCUUAUCGAAUUUUCGGGGGAUGCCUCCAAA [A12G G43C U45C C61G], AUAAAAGCGCCGGAAUUACAGAAAUGUAAUUGACGAGGAAGUGGGUUAUCGAAUUUUCGGCGGAUGCCUCCAAA [A12G C16U G29A G40A A42U U45G] is higher in “self-cleavage kobs at 10000 uM GlcN6P” value: < 1e-05 s⁻¹ for the first, 8.82e-05 ± 1.6e-05 s⁻¹ for the second.

First: AUAAAAGCGCCUGAACUACAGAAAUGUAGUUGACGAAGAGGAGGUUUAUCGAAUUUUCGGCGGAUGCCUGCAAA [A12U G37A C70G]
Second: AUAAAAGCGCCUGAACUACAGAAAUGUAUAAGACGAGGAGGAGGUUUAUCGAAUUUUCGGCGGAUGCCUCCAAA [A12U G29U U30A U31A]
The “self-cleavage kobs at 10000 uM GlcN6P” value of the first is 4-fold lower: 9.11e-05 ± 2.1e-05 s⁻¹ for the first, 0.000361 ± 0.00013 s⁻¹ for the second.
